Assay results taken from US12679878B2, “CRF2 receptor agonists and their use in therapy” (SANOFI, priority 2020, dated 2026).
Starred links: 1 amine or outer side, 2 acyl side, 3 side chain; linkers in the order of their positions; H or OH if unused. Non-standard residues stand in square brackets, D forms with d. Groups on a side chain read outwards from the residue. No end group written: not given here. *: point of attachment. C18 diacid = O=C(O)CCCCCCCCCCCCCCCCC(=O)*; γGlu = O=C(O)[C@H](CCC(=O)[*:2])N[*:1]; Palmitoyl = CCCCCCCCCCCCCCCC(=O)*; AEEA = NCCOCCOCC(=O)O; Aib = CC(C)(N)C(=O)O

Biological target: human corticotropin-releasing factor 2α (CRF2 α receptor) (human), Q13324
Test: cell-based or functional assay

Sequence of human corticotropin-releasing factor 2α (CRF2 α receptor) (human), Q13324 (Q13324 20-411): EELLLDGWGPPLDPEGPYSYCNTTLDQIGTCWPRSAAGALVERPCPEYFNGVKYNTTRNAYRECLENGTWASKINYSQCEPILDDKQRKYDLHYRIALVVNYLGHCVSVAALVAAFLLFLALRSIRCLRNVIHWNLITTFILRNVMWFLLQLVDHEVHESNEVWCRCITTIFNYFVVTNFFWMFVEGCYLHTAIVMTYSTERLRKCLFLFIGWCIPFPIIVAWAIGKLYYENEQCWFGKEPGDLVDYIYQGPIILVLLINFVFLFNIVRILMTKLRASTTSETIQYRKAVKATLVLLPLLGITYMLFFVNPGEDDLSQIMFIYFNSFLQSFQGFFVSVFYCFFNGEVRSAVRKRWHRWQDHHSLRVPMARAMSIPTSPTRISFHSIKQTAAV

Binder	EC50 [nM], 0% HSA	EC50 [nM], 0.1% HSA
IVLSLD[dV]PTKLK([γGlu-Palmitoyl])QKLLKQERQRKEREQAEKNKRILERV-NH2 (N-terminus assumed; SMILES CCCCCCCCCCCCCCCC(=O)N[C@@H](CCC(=O)NCCCC[C@H](NC(=O)[C@H](CC(C)C)NC(=O)[C@H](CCCCN)NC(=O)[C@@H](NC(=O)[C@@H]1CCCN1C(=O)[C@H](NC(=O)[C@H](CC(=O)O)NC(=O)[C@H](CC(C)C)NC(=O)[C@H](CO)NC(=O)[C@H](CC(C)C)NC(=O)[C@@H](NC(=O)[C@@H](N)[C@@H](C)CC)C(C)C)C(C)C)[C@@H](C)O)C(=O)N[C@@H](CCC(N)=O)C(=O)N[C@@H](CCCCN)C(=O)N[C@@H](CC(C)C)C(=O)N[C@@H](CC(C)C)C(=O)N[C@@H](CCCCN)C(=O)N[C@@H](CCC(N)=O)C(=O)N[C@@H](CCC(=O)O)C(=O)N[C@@H](CCCNC(=N)N)C(=O)N[C@@H](CCC(N)=O)C(=O)N[C@@H](CCCNC(=N)N)C(=O)N[C@@H](CCCCN)C(=O)N[C@@H](CCC(=O)O)C(=O)N[C@@H](CCCNC(=N)N)C(=O)N[C@@H](CCC(=O)O)C(=O)N[C@@H](CCC(N)=O)C(=O)N[C@@H](C)C(=O)N[C@@H](CCC(=O)O)C(=O)N[C@@H](CCCCN)C(=O)N[C@@H](CC(N)=O)C(=O)N[C@@H](CCCCN)C(=O)N[C@@H](CCCNC(=N)N)C(=O)N[C@H](C(=O)N[C@@H](CC(C)C)C(=O)N[C@@H](CCC(=O)O)C(=O)N[C@@H](CCCNC(=N)N)C(=O)N[C@H](C(N)=O)C(C)C)[C@@H](C)CC)C(=O)O) [SEQ ID NO: 18]	0.03 nM	
Ac-IVLSLD[dV]PIKLK([AEEA-AEEA-γGlu-C18 diacid])QILLEQERQE[Aib]EREQAEKNEQILEQV-NH2 (SMILES CC[C@H](C)[C@H](NC(C)=O)C(=O)N[C@H](C(=O)N[C@@H](CC(C)C)C(=O)N[C@@H](CO)C(=O)N[C@@H](CC(C)C)C(=O)N[C@@H](CC(=O)O)C(=O)N[C@@H](C(=O)N1CCC[C@H]1C(=O)N[C@H](C(=O)N[C@@H](CCCCN)C(=O)N[C@@H](CC(C)C)C(=O)N[C@@H](CCCCNC(=O)COCCOCCNC(=O)COCCOCCNC(=O)CC[C@H](NC(=O)CCCCCCCCCCCCCCCCC(=O)O)C(=O)O)C(=O)N[C@@H](CCC(N)=O)C(=O)N[C@H](C(=O)N[C@@H](CC(C)C)C(=O)N[C@@H](CC(C)C)C(=O)N[C@@H](CCC(=O)O)C(=O)N[C@@H](CCC(N)=O)C(=O)N[C@@H](CCC(=O)O)C(=O)N[C@@H](CCCNC(=N)N)C(=O)N[C@@H](CCC(N)=O)C(=O)N[C@@H](CCC(=O)O)C(=O)NC(C)(C)C(=O)N[C@@H](CCC(=O)O)C(=O)N[C@@H](CCCNC(=N)N)C(=O)N[C@@H](CCC(=O)O)C(=O)N[C@@H](CCC(N)=O)C(=O)N[C@@H](C)C(=O)N[C@@H](CCC(=O)O)C(=O)N[C@@H](CCCCN)C(=O)N[C@@H](CC(N)=O)C(=O)N[C@@H](CCC(=O)O)C(=O)N[C@@H](CCC(N)=O)C(=O)N[C@H](C(=O)N[C@@H](CC(C)C)C(=O)N[C@@H](CCC(=O)O)C(=O)N[C@@H](CCC(N)=O)C(=O)N[C@H](C(N)=O)C(C)C)[C@@H](C)CC)[C@@H](C)CC)[C@@H](C)CC)C(C)C)C(C)C) [SEQ ID NO: 161]	36 nM	977 nM
